According to patent publication US20220033784A1 (priority 2020, published 2022):

Legend:
[1] = molecular target: human intermediate-affinity IL-2 receptor complex, IL-2 CD122/CD132 (β/γ), on cells (human) (UniProt P14784)
[2] = molecular target: human high-affinity IL-2 receptor complex, IL-2 CD25/CD122/CD132 (α/β/γ), on cells (human) (UniProt P01589)
[3] = molecular target: T1, mouse intermediate-affinity IL-2R (IL-2Rβ + IL-2Rγ) on murine splenocytes (CD8+ T cells and NK cells) (mouse) (UniProt P16297)
T1 sequence 1: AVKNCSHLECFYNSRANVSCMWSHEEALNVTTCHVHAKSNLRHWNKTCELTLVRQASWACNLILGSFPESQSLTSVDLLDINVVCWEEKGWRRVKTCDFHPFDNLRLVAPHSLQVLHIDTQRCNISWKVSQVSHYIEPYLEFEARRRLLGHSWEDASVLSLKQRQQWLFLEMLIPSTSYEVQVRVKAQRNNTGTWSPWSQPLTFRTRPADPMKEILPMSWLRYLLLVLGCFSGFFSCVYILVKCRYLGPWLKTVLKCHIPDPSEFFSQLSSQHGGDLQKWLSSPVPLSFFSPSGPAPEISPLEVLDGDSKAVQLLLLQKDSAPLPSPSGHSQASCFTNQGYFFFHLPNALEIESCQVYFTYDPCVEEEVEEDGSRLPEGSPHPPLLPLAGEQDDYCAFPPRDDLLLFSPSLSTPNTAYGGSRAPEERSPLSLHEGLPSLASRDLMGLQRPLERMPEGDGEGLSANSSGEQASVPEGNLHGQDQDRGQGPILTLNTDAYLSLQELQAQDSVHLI
T1 sequence 2: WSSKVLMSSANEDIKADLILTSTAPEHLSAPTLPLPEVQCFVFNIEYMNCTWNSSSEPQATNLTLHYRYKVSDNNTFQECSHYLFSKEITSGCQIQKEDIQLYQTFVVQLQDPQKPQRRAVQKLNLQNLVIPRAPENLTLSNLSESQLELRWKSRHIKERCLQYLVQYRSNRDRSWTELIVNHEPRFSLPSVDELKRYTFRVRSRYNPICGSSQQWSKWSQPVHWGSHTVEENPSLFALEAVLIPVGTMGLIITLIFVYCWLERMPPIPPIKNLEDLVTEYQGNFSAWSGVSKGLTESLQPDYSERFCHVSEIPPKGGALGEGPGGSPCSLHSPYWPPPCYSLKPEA

[4] = molecular target: T2, mouse high-affinity IL-2R (IL-2Rα/CD25 + IL-2Rβ + IL-2Rγ) on murine splenocytes (Treg cells, CD3+CD4+CD25+Foxp3+) (mouse) (UniProt P01590)
T2 sequence 1: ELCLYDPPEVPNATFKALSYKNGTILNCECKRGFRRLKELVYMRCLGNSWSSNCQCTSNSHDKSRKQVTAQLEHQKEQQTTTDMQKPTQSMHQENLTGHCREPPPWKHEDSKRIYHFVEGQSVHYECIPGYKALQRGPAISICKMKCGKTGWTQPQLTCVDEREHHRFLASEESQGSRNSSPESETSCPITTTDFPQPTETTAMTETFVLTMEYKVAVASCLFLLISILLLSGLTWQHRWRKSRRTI
T2 sequence 2: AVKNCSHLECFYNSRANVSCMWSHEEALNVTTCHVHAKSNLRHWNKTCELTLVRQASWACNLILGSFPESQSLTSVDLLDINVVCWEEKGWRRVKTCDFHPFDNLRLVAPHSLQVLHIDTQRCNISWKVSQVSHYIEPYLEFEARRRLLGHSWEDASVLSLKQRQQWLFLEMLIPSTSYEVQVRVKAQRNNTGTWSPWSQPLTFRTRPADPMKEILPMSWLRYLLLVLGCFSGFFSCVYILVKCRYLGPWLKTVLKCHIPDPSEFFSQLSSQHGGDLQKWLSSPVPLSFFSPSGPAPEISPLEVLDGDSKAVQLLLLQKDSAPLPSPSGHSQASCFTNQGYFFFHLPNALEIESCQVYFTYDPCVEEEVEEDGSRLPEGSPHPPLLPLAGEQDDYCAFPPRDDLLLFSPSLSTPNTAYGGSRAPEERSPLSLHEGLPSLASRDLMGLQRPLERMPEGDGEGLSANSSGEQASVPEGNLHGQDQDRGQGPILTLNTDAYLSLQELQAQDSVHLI
T2 sequence 3: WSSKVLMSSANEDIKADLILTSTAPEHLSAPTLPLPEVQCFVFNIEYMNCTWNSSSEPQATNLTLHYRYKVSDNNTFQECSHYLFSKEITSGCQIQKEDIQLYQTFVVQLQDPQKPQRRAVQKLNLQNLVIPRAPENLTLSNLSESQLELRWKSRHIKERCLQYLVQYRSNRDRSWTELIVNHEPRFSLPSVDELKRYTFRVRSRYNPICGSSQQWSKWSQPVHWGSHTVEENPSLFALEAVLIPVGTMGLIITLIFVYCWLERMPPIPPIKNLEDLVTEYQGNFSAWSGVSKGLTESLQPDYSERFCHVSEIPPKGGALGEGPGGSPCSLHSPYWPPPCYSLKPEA

[5] = molecular target: T1, mouse intermediate-affinity IL-2R (IL-2Rβ + IL-2Rγ) on murine splenocytes (CD8+ T cells and NK cells) (mouse); remark: listed apart in the source

| Substance | EC50 (read off the curve), pSTAT5 MFI in NK cells of hPBMC [1] | EC50 (read off the curve), pSTAT5 MFI in Treg cells of hPBMC [2] | EC50 (read off the curve), pSTAT5 MFI, murine splenocyte NK cells [3] | EC50 (read off the curve), pSTAT5 MFI, murine splenocyte Treg cells [4] | EC50 (read off the curve), pSTAT5 MFI, murine splenocyte CD8 T cells [5] |
| --- | --- | --- | --- | --- | --- |
| Fc-IL2-R38N:L40T-T41N:K43T (from UniProt P01857-1) (Fc fusion) | 6 nM | 20 nM | – | – | – |
| human IL-2 variant hIL-2v (F42A, Y45A, L72G), secreted by virus-infected HeLa cells (from UniProt P60568 21-153) (ligand) | – | – | 20 ng/mL | 70 ng/mL | 100 ng/mL |
